From IntAct's records for PubMed 29039417

B1: BBSome complex member BBS4 (Homo sapiens), Q96RK4 (parent)
chain: MAEERVATRTQFPVSTESQKPRQKKAPEFPILEKQNWLIHLHYIRKDYEACKAVIKEQLQETQGLCEYAIYVQALIFRLEGNIQESLELFQTCAVLSPQSADNLKQVARSLFLLGKHKAAIEVYNEAAKLNQKDWEISHNLGVCYIYLKQFNKAQDQLHNALNLNRHDLTYIMLGKIHLLEGDLDKAIEVYKKAVEFSPENTELLTTLGLLYLQLGIYQKAFEHLGNALTYDPTNYKAILAAGSMMQTHGDFDVALTKYRVVACAVPESPPLWNNIGMCFFGKKKYVAAISCLKRANYLAPFDWKILYNLGLVHLTMQQYASAFHFLSAAINFQPKMGELYMLLAVALTNLEDIENAKRAYAEAVHLDKCNPLVNLNYAVLLYNQGEKKNALAQYQEMEKKVSLLKDNSSLEFDSEMVEMAQKLGAALQVGEALVWTKPVKDPKSKHQTTSTSKPASFQQPLGSNQALGQAMSSAAAYRTLPSGAGGTSQFTKPPSLPLEPEPAVESSPTETSEQIREK
partner: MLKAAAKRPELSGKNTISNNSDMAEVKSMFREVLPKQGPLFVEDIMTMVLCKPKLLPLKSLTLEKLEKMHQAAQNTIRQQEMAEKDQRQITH

Variants of: B1
Conditions: with bbip1_human BBIP1, A8MTZ0

Effect of a mutation on the interaction, with no effect:
MAEERVATRTQFPVSTESQKPRQKKAPEFPILEKQNWLIHLHYIRKDYEACKAVIKEQLQETQGLCEYAIYVQALIFRLEGNIQESLELFQTCAVLSPQSADNLKQVARSLFLLGKHKAAIEVYNEAAKLNQKDWEISHNLGVCYIYLKQFNKAQDQLHNALNLNRHDLTYIMLGKIHLLEGDLDKAIEVYKKAVEFSPENTELLTTLGLLYLQLGIYQKAFEHLGNALTYDPTNYKAILAAGSMMQTHGDFDVALTKYRVVACAVPESPPLWNNIGMCFFGKKKYVAAISCLKRANYLAPFDWKILYNLGLVHLTMQQYASAFHFLSAAINFQPKMGELYMLLAVALTNLEDIENAKRAYAEAVHLDKCNPLVNLNYAVLLYNQGEKKNALAQYQEMEKKVSLLKDNSSLEFDSEMVEMAQKLGAALQVGEELVWTKPVKDPKSKHQTTSTSKPASFQQPLGSNQALGQAMSSAAAYRTLPSGAGGTSQFTKPPSLPLEPEPAVESSPTETSEQIREK [A433E]
MAEERVATRTQFPVSTESQKPRQKKAPEFPILEKQNWLIHLHYIRKDYEACKAVIKEQLQETQGLCEYAIYVQALIFRLEGNIQESLELFQTCAVLSPQSADNLKQVARSLFLLGKHKAAIEVYNEAAKLNQKDWEISHNLGVCYIYLKQFNKAQDQLHNALNLNRHDLTYIMLGKIHLLEGDLDKAIEVYKKAVEFSPENTELLTTLGLLYLQLGIYQKAFEHLGNALTYDPTNYKAILAAGSMMQTHGDFDVALTKYRVVACAVPESPPLWNNIGMCFFGKKKYVAAISCLKRANYLAPFDWKILYNLGLVHLTMQQYASAFHFLSAAINFQPKMGELYMLLAVALTNLEDIENAKRAYAEAVHLDKCNPLVNLNYAVLLYNQGEKKNALAQYQEMEKKVSLLKDNSSLEFDSEMVEMAQKLGAALQVGEKLVWTKPVKDPKSKHQTTSTSKPASFQQPLGSNQALGQAMSSAAAYRTLPSGAGGTSQFTKPPSLPLEPEPAVESSPTETSEQIREK [A433K]
MAEERVATRTQFPVSTESQKPRQKKAPEFPILEKQNWLIHLHYIRKDYEACKAVIKEQLQETQGLCEYAIYVQALIFRLEGNIQESLELFQTCAVLSPQSADNLKQVARSLFLLGKHKAAIEVYNEAAKLNQKDWEISHNLGVCYIYLKQFNKAQDQLHNALNLNRHDLTYIMLGKIHLLEGDLDKAIEVYKKAVEFSPENTELLTTLGLLYLQLGIYQKAFEHLGNALTYDPTNYKAILAAGSMMQTHGDFDVALTKYRVVACAVPESPPLWNNIGMCFFGKKKYVAAISCLKRANYLAPFDWKILYNLGLVHLTMQQYASAFHFLSAAINFQPKMGELYMLLAVALTNLEDIENAKRAYAEAVHLDKCNPLVNLNYAVLLYNQGEKKNALAQYQEMEKKVSLLKDNSSLEFDSEMVEMAQKLGAALQVGEAAVWTKPVKDPKSKHQTTSTSKPASFQQPLGSNQALGQAMSSAAAYRTLPSGAGGTSQFTKPPSLPLEPEPAVESSPTETSEQIREK [L434A]
MAEERVATRTQFPVSTESQKPRQKKAPEFPILEKQNWLIHLHYIRKDYEACKAVIKEQLQETQGLCEYAIYVQALIFRLEGNIQESLELFQTCAVLSPQSADNLKQVARSLFLLGKHKAAIEVYNEAAKLNQKDWEISHNLGVCYIYLKQFNKAQDQLHNALNLNRHDLTYIMLGKIHLLEGDLDKAIEVYKKAVEFSPENTELLTTLGLLYLQLGIYQKAFEHLGNALTYDPTNYKAILAAGSMMQTHGDFDVALTKYRVVACAVPESPPLWNNIGMCFFGKKKYVAAISCLKRANYLAPFDWKILYNLGLVHLTMQQYASAFHFLSAAINFQPKMGELYMLLAVALTNLEDIENAKRAYAEAVHLDKCNPLVNLNYAVLLYNQGEKKNALAQYQEMEKKVSLLKDNSSLEFDSEMVEMAQKLGAALQVGEAEVWTKPVKDPKSKHQTTSTSKPASFQQPLGSNQALGQAMSSAAAYRTLPSGAGGTSQFTKPPSLPLEPEPAVESSPTETSEQIREK [L434E]
MAEERVATRTQFPVSTESQKPRQKKAPEFPILEKQNWLIHLHYIRKDYEACKAVIKEQLQETQGLCEYAIYVQALIFRLEGNIQESLELFQTCAVLSPQSADNLKQVARSLFLLGKHKAAIEVYNEAAKLNQKDWEISHNLGVCYIYLKQFNKAQDQLHNALNLNRHDLTYIMLGKIHLLEGDLDKAIEVYKKAVEFSPENTELLTTLGLLYLQLGIYQKAFEHLGNALTYDPTNYKAILAAGSMMQTHGDFDVALTKYRVVACAVPESPPLWNNIGMCFFGKKKYVAAISCLKRANYLAPFDWKILYNLGLVHLTMQQYASAFHFLSAAINFQPKMGELYMLLAVALTNLEDIENAKRAYAEAVHLDKCNPLVNLNYAVLLYNQGEKKNALAQYQEMEKKVSLLKDNSSLEFDSEMVEMAQKLGAALQVGEAKVWTKPVKDPKSKHQTTSTSKPASFQQPLGSNQALGQAMSSAAAYRTLPSGAGGTSQFTKPPSLPLEPEPAVESSPTETSEQIREK [L434K]
MAEERVATRTQFPVSTESQKPRQKKAPEFPILEKQNWLIHLHYIRKDYEACKAVIKEQLQETQGLCEYAIYVQALIFRLEGNIQESLELFQTCAVLSPQSADNLKQVARSLFLLGKHKAAIEVYNEAAKLNQKDWEISHNLGVCYIYLKQFNKAQDQLHNALNLNRHDLTYIMLGKIHLLEGDLDKAIEVYKKAVEFSPENTELLTTLGLLYLQLGIYQKAFEHLGNALTYDPTNYKAILAAGSMMQTHGDFDVALTKYRVVACAVPESPPLWNNIGMCFFGKKKYVAAISCLKRANYLAPFDWKILYNLGLVHLTMQQYASAFHFLSAAINFQPKMGELYMLLAVALTNLEDIENAKRAYAEAVHLDKCNPLVNLNYAVLLYNQGEKKNALAQYQEMEKKVSLLKDNSSLEFDSEMVEMAQKLGAALQVGEALAWTKPVKDPKSKHQTTSTSKPASFQQPLGSNQALGQAMSSAAAYRTLPSGAGGTSQFTKPPSLPLEPEPAVESSPTETSEQIREK [V435A]
